“Also recorded” adds a separate entry of the source.
Tests used:
TF-factor VIIa complex = target: T1, TF-factor VIIa complex (Homo sapiens, UniProt P13726); assay: Thrombin generation: prothrombin added to the factor Xa generation assay (chromogenic substrate for thrombin); format: biochemical; conditions: prothrombin 222 μM added, 15 min 37° C.
T1 construct: purchased American Diagnostica (Stanford, Conn., USA)
Experimental: FIG. 1D. Heparanase increases thrombin levels. Recombinant human TF, recombinant human factor VIIa, plasma-derived human factor X, and plasma-derived human prothrombin were incu-bated (15 min, 37° C.) in a total volume of 125 μL. Chromogenic substrate for the detection of thrombin was then added (1 mM). Human recombinant heparanase (Hepa) was added prior to the addition of the coagulation factors. The mean value±SD of three independent experiments is shown. Note a 3-fold increase in coagulation activity in the presence of heparanase.
In order to verify that factor Xa produced in the presence of heparanase is active, thrombin generation, the next step in the coagulation cascade, was examined. The experiment described above (FIG. 1A) was repeated and plasma-derived human prothrombin (222 μM) was added following the addition of factor X. After 15 minutes at 37° C., chromogenic substrate for thrombin was added (1 mM). In the presence of heparanase, thrombine generation was increased (FIG. 1D).

prothrombin = target: T2, prothrombin (Homo sapiens, UniProt P00734); assay: Direct activation of prothrombin by heparanase; format: biochemical; conditions: heparanase with prothrombin, 15 min 37° C.
T2 construct: plasma-derived human prothrombin; purchased American Diagnostica (Stanford, Conn., USA); host or cells: purified from human plasma

whole blood = assay: Thromboelastography in citrated whole blood; parameters: species or system human
Experimental: Thromboelastogram studies. The assay includes addition of factor VIIa, X and calcium to blood drawn into citrate in the presence or absence of heparanase. Each time, a sample with addition of heparanase (Hepa) and a sample without (Con)—were analyzed in parallel. R—The period of latency from the time that the blood was placed in the analyzer until the initial fibrin formation: this represents the coagulation factor activation.
Angle—measures the rapidity of fibrin build-up and cross-linking: this represents the coagulation factor amplification. MA—A direct function of the maximum dynamic properties of fibrin and platelet bonding: signifies the ultimate strength of the clot. […] Representative results are shown.
The assay was performed according to the manufacturer's recommendations. Briefly, 3 mL of healthy donor's whole blood were collected in a bottle containing 3.2% (0.12M) sodium citrate and stored at room temperature. Recalcification and TEG® measurements at 37° C. were performed in disposable cups of the Thrombelastograph® coagulation analyzer (Haemoscope Corporation, Skokie, Ill., USA).
(§1) Next, the procoagulant effect of heparanase in human plasma was tested. Using an ELISA method [Shafat I. et al., Biochem Biophys Res. Commun. […] When heparanase, factor VIIa and factor X were incubated (15 min, 37° C.) with pooled normal human plasma from five healthy donors, followed by the addition of a chromogenic substrate for factor Xa, a 7- to 8-fold increase in factor Xa levels was obtained com-pared to levels in plasma incubated in the absence of heparanase (FIG. 2). In this condition the coagulation was mainly dependent on the concentration of endogenous TF, as described previously [Suefuji H. et al., Am Heart J. 1997, 134(2 Pt. 1):253-259; Kim H K et al., Cardiology. 2000, 93(1-2):31-36]. The effect of heparanase was also tested in whole blood using thromboelastography. […]

TF = target: T3, TF (Homo sapiens, UniProt P13726); assay: Far-western analysis of heparanase binding to TF and TFPI; conditions: heparanase 1 μg/mL, 2 h, 4° C.; TF 100 ng, TFPI 100 ng
T3 construct: purchased American Diagnostica (Stanford, Conn., USA)
Experimental: FIG. 7B. Far-western analysis. Recombinant TF (100 ng) and TFPI (100 ng) were resolved by SDS-PAGE under reducing conditions using a 10% gradient polyacrylamide gel. After electrophoresis, proteins were transferred to a polyvinylidene fluoride membrane. The membrane was incubated for 2 h with GS3 active heparanase protein (1 μg/mL, 4° C.). Next, the membrane was probed with anti-heparanase antibody followed by horseradish peroxidase-conjugated secondary antibody and chemiluminescence substrate, as described in the Design and Methods section.

normal human plasma = assay: Factor Xa generation in pooled normal human plasma; format: biochemical; conditions: factor VIIa and factor X added, 15 min 37° C.
Experimental: Increasing doses of heparanase were added to pooled normal human plasma (25 μL plasma). After 15 min at 37° C., chromogenic substrate for the detection of factor Xa was added (1 mM). The mean value±SD of three independent experiments is shown. Note a 7- to 8-fold increase in coagulation activity in the presence of heparanase.
as §1, with “thromboelastography. Citrated blood samples from healthy donors to which factor VIIa (0.04 μM) and factor X (1.4 μM) were added were recalcified according to the manufacturer's recommendations (final concentration of CaCl2) 8 mM) and arranged in the disposable cups of the thromboelastogram.” for “thromboelastography.”

T3 sequence (P13726 33-295): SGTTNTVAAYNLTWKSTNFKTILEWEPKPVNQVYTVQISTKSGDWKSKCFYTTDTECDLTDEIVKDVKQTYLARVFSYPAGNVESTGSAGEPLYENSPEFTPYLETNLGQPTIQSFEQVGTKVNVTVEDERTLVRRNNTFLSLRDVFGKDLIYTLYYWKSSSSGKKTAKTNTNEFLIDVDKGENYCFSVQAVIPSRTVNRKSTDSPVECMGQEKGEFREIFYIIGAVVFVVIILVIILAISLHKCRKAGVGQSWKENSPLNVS
T1 sequence (P13726 33-295): as above
T1 sequence (P08709 61-212 partner limits assumed): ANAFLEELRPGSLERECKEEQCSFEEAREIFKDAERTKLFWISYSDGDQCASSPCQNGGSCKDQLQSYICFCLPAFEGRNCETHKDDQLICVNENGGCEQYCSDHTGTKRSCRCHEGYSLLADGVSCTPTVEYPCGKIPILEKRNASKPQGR
T1 sequence (P08709 213-466 partner limits assumed): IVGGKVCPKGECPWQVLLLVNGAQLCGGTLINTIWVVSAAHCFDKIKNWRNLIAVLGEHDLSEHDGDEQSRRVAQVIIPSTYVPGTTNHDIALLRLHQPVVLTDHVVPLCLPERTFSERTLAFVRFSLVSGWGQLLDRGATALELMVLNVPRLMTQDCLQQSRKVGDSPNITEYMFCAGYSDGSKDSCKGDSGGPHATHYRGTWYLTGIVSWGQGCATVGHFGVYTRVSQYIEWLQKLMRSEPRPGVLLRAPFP

B1: heparanase: single chain GS3 active heparanase, comprised of the 8 kDa and 50 kDa heparanase heterodimer (8+50), recombinant human (protein, listed as Homo sapiens)
chain 1: DPAQDVVDLDFFTQEPLHLVSPSFLSVTIDANLATDPRFLILLGSPKLRTLARGLSPAYLRFGGTKTDFLIFDPKKE
chain 2: DPGKKFKNSTYSRSSVDVLYTFANCSGLDLIFGLNALLRTADLQWNSSNAQLLLDYCSSKGYNISWELGNEPNSFLKKADIFINGSQLGEDFIQLHKLLRKSTFKNAKLYGPDVGQPRRKTAKMLKSFLKAGGEVIDSVTWHHYYLNGRTATREDFLNPDVLDIFISSVQKVFQVVESTRPGKKVWLGETSSAYGGGAPLLSDTFAAGFMWLDKLGLSARMGIEVVMRQVFFGAGNYHLVDENFDPLPDYWLSLLFKKLVGTKVLMASVQGSKRRKLRVYLHCTNTDNPRYKEGDLTLYAINLHNVTKYLRLPYPFSNKQVDKYLLRPLGPHGLLSKSVQLNGLTLKMVDDQTLPPLMEKPLRPGSSLGLPAFSYSFFVIRNAKVAACI
modifications: single-chain GS3 linker
TF-factor VIIa complex
  increase in coagulation activity (thrombin level): 3 fold
prothrombin
  thrombin generation from prothrombin alone: no thrombin was generated
Whole blood; heparanase 4 μM
  time to clot formation (R) at the highest dose: effect on time to clot formation was abolished; also recorded: no effect on R is detected
Whole blood; increasing doses of heparanase
  thrombus strength (MA): increase in thrombus strength; also recorded: stronger
Whole blood; increasing doses of heparanase, factor VIIa 0.04 μM, factor X 1.4 μM, recalcified blood
  time to clot formation (R): significant reduction in time to clot formation; also recorded: significantly faster
TF
  binding to TF and TFPI on membrane: A clear band was revealed in the TF-heparanase lane but not in the TFPI-heparanase lane
Normal human plasma
  increase in coagulation activity (factor Xa levels) in plasma: 7- to 8 fold

— patent publication US11448657B2, “Methods and kits for assessing Heparanase procoagulant activity, compositions comprising Heparanase, and methods for the treatment of coagulation-related disorders” (RAMBAM MED-TECH, priority 2011, dated 2022)
